The results in this text go back to patent US20040014207A1.

The target of the experiment is murine B7-DC (murine) (UniProt Q9WUL5). As to the kind of experiment: flow cytometry competition; murine bone marrow derived dendritic cells preincubated with PD-1.Ig, then stained with sHIgM12.
Chain of murine B7-DC (murine) (Q9WUL5 20-247): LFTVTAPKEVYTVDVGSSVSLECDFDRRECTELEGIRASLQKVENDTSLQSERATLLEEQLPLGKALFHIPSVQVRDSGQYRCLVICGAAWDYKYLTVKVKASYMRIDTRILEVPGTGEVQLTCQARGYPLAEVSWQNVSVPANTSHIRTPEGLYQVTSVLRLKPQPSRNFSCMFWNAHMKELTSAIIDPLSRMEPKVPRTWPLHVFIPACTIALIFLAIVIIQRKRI

Chain of PD-1.Ig fusion protein (Fc fusion) (Q02242 25-169): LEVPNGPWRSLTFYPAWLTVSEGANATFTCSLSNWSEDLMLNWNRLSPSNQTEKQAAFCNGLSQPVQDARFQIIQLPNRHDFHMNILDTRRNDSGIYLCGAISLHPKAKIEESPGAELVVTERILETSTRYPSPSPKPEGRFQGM

Turning to PD-1.Ig fusion protein (Fc fusion), the sHIgM12 staining remaining, percent of the level in the absence of PD-1 stood at 50%.
